{
  "source": "paper PMC10966351",
  "biological_target": "BlaC P107T (Mycobacterium tuberculosis)",
  "assay": "crystal structure; sitting-drop vapor diffusion at 20°C, protein 10 mg/mL in 100 mM sodium phosphate buffer pH 6.4; four molecules in the asymmetric unit",
  "data": [
    {"substance": "BlaC P107T (enzyme)", "values": [
      {"measurement": "stoichiometry N", "result": 2}
    ]}
  ]
}
